{"source": "patent US20220226486A1", "about": "(SYNTAB THERAPEUTICS, published 2022)", "binders": {"B1": {"name": "biotinylated peptide binder SEQ ID No 2 targeting αvβ6 Integrin (peptide)", "peptide": "RGDLATLRQL", "modifications": "also: biotinylated, site not given here", "notes": "Synthetic peptide, biotinylated for flow cytometry"}}, "biological_target": "T1, αvβ6 Integrin (human, UniProt P06756 31-1048; P18564 22-788)", "T1 construct": "whole, on cells; also called αvβ6 Integrin surface antigen", "T1 sequence (P06756 31-1048, chain 1 of 2)": "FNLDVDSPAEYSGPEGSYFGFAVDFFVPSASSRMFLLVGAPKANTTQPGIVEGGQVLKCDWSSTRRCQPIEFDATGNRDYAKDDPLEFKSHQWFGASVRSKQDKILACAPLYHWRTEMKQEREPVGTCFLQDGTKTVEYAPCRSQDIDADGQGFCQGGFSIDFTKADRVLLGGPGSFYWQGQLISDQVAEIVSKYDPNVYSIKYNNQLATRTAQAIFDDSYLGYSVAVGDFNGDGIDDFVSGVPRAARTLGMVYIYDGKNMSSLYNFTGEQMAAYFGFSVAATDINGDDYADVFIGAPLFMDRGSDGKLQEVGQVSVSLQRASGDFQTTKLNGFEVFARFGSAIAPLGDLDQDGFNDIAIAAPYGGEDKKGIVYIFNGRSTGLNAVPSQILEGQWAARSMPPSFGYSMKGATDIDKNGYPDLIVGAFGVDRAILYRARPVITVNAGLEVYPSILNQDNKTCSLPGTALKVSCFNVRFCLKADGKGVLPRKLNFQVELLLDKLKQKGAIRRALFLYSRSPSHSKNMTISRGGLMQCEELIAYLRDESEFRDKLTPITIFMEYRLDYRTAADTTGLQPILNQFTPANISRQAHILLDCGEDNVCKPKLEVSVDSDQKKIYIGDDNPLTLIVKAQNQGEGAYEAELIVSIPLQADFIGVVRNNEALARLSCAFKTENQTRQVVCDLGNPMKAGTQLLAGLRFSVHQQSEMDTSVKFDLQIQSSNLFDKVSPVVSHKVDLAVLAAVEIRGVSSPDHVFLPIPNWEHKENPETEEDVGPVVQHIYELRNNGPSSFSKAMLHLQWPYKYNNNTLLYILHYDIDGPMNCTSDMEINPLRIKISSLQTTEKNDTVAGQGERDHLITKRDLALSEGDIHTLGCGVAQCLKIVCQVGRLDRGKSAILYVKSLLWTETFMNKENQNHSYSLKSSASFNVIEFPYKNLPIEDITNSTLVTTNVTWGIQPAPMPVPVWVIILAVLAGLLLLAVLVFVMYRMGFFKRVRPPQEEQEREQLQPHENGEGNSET", "T1 sequence (P18564 22-788, chain 2 of 2)": "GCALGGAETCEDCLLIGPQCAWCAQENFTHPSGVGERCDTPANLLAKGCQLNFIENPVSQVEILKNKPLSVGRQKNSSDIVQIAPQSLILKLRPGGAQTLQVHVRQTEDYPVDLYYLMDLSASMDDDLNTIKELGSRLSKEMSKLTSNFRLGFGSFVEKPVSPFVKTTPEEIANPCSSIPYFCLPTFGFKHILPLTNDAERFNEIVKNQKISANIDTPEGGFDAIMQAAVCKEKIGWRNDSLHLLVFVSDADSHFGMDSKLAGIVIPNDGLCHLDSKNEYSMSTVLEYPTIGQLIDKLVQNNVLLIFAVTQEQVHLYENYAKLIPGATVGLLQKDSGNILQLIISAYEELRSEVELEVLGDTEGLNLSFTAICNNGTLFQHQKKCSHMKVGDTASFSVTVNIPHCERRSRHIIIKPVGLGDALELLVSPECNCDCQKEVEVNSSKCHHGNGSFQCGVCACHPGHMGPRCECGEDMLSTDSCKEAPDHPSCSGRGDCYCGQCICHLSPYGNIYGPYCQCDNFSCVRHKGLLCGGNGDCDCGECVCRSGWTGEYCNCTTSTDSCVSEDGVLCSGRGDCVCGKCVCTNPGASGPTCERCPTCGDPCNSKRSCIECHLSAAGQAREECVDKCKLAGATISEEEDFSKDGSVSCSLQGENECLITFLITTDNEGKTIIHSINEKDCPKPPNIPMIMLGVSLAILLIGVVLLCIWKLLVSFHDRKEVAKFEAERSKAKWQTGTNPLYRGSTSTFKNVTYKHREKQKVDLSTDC", "assay": "flow cytometry, 10 nM biotinylated binder on human tumor cell lines, Streptavidin-PerCP-Cy5.5", "method": "The binding capability of peptides or peptidomimetics, of synthetic compounds according to the invention to different cell lines displaying particular targets was investigated by using flow cytometry. Detached cells were incubated with biotinylated peptide/peptidomimetic or biotinylated synthetic compound in blocking buffer for at least 30 min of ice. The cells were washed twice with washing buffer followed by incubation with streptavidin labeled with the Peridinin-chlorophyll protein PerCP-Cy5.5 (BD Biosciences) for 15 minutes on ice. After one additional wash step, samples were analyzed using FACS Canto (at least 10,000 cells per sample were counted) for cells which have bound the biotinylated reagent plus the streptavidin-PerCP-Cy5.5. Overlay histograms of cells incubated with peptide or control peptide were generated and the geometrical mean fluorescence of each sample was determined in FloJo. The EC50 measurements were calculated using Graph Prism software.", "note": "Ends that are not written are not given here."}
{"binder": "B1", "values": [{"measurement": "binding result", "result": "binds"}]}
